In the supplement of paper PMC10567573:
± gives the standard deviation.

Experiment: protein stability index of a GFP-peptide fusion (GPS, HEK-293T) (PSI 1-6); higher = more stable
[1] = treatment: DMSO, c terminus: a fixed tail appended
[2] = treatment: MLN4924 1 uM, 8 h, c terminus: a fixed tail appended
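Note: 24-mer peptide tiles fused after GFP, lentivirally expressed, FACS-sorted into six equal bins by GFP/DsRed ratio, decoded by Illumina sequencing, PSI is the read-weighted mean bin number.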

Sequence | protein stability index [1] | protein stability index [2] | protein stability index (treatment: DMSO, c terminus: native) | protein stability index (treatment: MLN4924 1 uM, 8 h, c terminus: native)
WVDITDVPPGDYLFQVVINPNFEV [LOXL2] | 2.94 ± 0.71 | 2.91 ± 0.98 | – | –
YCDLPQLFQLSCSSTQLNELLLFA [OR3A1] | 2.61 ± 0.36 | 2.64 ± 0.57 | – | –
YDPFRDAVTLRCGHNFCRGCVSRC [TRIM35] | 2.69 ± 0.46 | 2.74 ± 0.4 | – | –
YFDPLRNEYFFDRNRPSFDAILYY [KCNA3] | 2.62 ± 0.54 | 2.44 ± 0.32 | – | –
YFTDLFDYLPLTALVDGQIFCLHG [PPP2CA] | 3.22 ± 0.39 | 2.91 ± 0.3 | – | –
YGCKVADIKKVNNFIREQDLYALK [LYSMD4] | 2.27 ± 0.22 | 2.39 ± 0.21 | – | –
YGLDSVKKKCLEWLLNNLMTHQNV [GMCL1] | 3.09 ± 0.26 | 2.73 ± 0.21 | – | –
YILELDDGNGGQFREVYVGKETMC [TRIM9] | 2.28 ± 0.11 | 2.29 ± 0.16 | – | –
YILLVGYPPFWDEDQHRLYQQIKA [CAMK2D] | 2.46 ± 0.099 | 2.54 ± 0.67 | – | –
YKNIKRPPGDIMFLLVQRFGELMR [USP39] | 2.29 ± 0.16 | 2.14 ± 0.17 | – | –
YLCFLLAVLLQLYVATEAILIALV [SLC22A15] | 2.64 ± 0.38 | 2.51 ± 0.63 | – | –
YLCKRVPHTVLDRQLLCLIDYYES [CEP70] | 2.1 ± 0.58 | 2.21 ± 0.32 | – | –
YLKKNHEEEMNALRGQVGGEINVE [KRT17] | 4.39 ± 0.23 | 4.75 ± 0.12 | – | –
YLLQWLKSDKALMMLFNDGTFQVN [PLK2] | 2.73 ± 0.53 | 2.53 ± 0.51 | – | –
YLSPRDFLSGLAFRVFHCTQYVRH [TPH1] | 2.31 ± 0.2 | 2.08 ± 0.17 | – | –
YNIATRRKALKNPSEEYGKILEVV [MLH1] | – | 2.74 ± 0.48 | – | –

Sequence | protein stability index [1] | protein stability index [2] | protein stability index (treatment: DMSO, c terminus: native) | protein stability index (treatment: MLN4924 1 uM, 8 h, c terminus: native)
YNIKLEGKVPMHKLFLEMLEAKV [ESRRG] | – | – | 2.83 ± 1.5 | 2.43 ± 1
YNYMMGIEFNPRIGKWFDFKLFFN [DHCR7] | 2.52 ± 0.53 | 2.23 ± 0.33 | – | –
YPHTRIQSLVSILRTTVHHAFPVV [CLCN6] | 2.42 ± 0.57 | 2.14 ± 0.15 | – | –
YQNELHKFLIWDTAGQERFRALAP [RAB22A] | 2.29 ± 0.045 | 2.46 ± 0.37 | – | –
YQQLCIYWTKYYDFKNPIIEKYLR [OAS1] | 2.92 ± 0.53 | 2.46 ± 0.7 | – | –
YQSYFKTIEELQQKILCAKAENAR [KRT34] | 2.46 ± 0.33 | 2.86 ± 0.5 | – | –
YQYIQSRFYRSPEVLLGTPYDLAI [DYRK1B] | 2.18 ± 0.41 | 2.29 ± 0.35 | – | –
YRKQNAYIATQGSLPETFGDFWRM [PTPRD] | 2.54 ± 0.39 | 2.12 ± 0.08 | – | –
YSSEMKTEDELRVRHLEEENRGIV [AUH] | 4.78 ± 1 | 5.35 ± 0.86 | – | –
YSYASTHRLMTDARRRVCHTEDFQ [CPXM2] | 2.91 ± 0.37 | 3.44 ± 0.36 | – | –
YSYMSPNKCSGMRFPLQEENSVTH [KMT5A] | 3.35 ± 0.25 | 3.14 ± 0.1 | – | –
YSYVYQDGLRLLGARARGVAMLGV [SOAT2] | 2.55 ± 0.59 | 2.25 ± 0.21 | – | –
YVATEAILIALVGATPSYHWDLAE [SLC22A15] | 3.01 ± 0.39 | 3.27 ± 0.31 | – | –
YVRLVCKDVRAPSRPAVGPPQPGC [ZSWIM9] | 2.22 ± 0.23 | 2.4 ± 0.27 | – | –
YYFIMACDQYSCALTGPVVDIVTG [DHCR7] | 3.35 ± 0.17 | 3.26 ± 0.53 | – | –
YYYTKVMSELFLHTPSDTGVSFQA [PKD2L1] | 2.74 ± 0.59 | 2.67 ± 0.64 | – | –
